Test results reported in patent US8048659.

What was measured:
[1] = biological target: T1, EuMac-Peptide-PEGA beads (Formula XII)
T1 chain: CWKKKPAPFAAA

[2] = biological target: T2, H-Cys(Npys)-Trp-Lys-Lys-Lys-Pro-Ala-Pro-Phe-Ala-Ala-Ala-LC-PEGA resin
T2 chain: CWKKKPAPFAAA

B1: Proteinase K Molecular Biology, SIGMA Catalog No. P-4850 (protein)
chain: AAQTNAPWGLARISSTSPGTSTYYYDESAGQGSCVYVIDTGIEASHPEFEGRAQMVKTYYYSSRDGNGHGTHCAGTVGSRTYGVAKKTQLFGVKVLDDNGSGQYSTIIAGMDFVASDKNNRNCPKGVVASLSLGGGYSSSVNSAAARLQSSGVMVAVAAGNNNADARNYSPASEPSVCTVGASDRYDRRSSFSNYGSVLDIFGPGTSILSTWIGGSTRSISGTSMATPHVAGLAAYLMTLGKTTAASACRYIADTANKGDLSNIPFGTVNLLAYNNYQA
B1 was tested, and the “absorbance of supernatant at 280 nm after hydrolysis at pH 8.0, 25.5 ug/mL Proteinase K” value [1] was “the Proteinase K did release a cleavage product containing tryptophan from the EuMac-Peptide-PEGA-Beads”, the “luminescence of beads before and after 115 min of Proteinase K hydrolysis” value [1] was “The drastic difference in luminescence before and after Proteinase K hydrolysis demonstrated that the EuMac-labeled part of the peptide was released from the bead” and the “absorbance of supernatant (275 nm and 350 nm peaks) after hydrolysis at pH 7.1, 15.1 ug/mL Proteinase K” value [2] was “the release of the free peptide was much greater for the Proteinase K sample”. The “absorbance of supernatant with time after hydrolysis at pH 8.01, 14.2 and 28.4 ug/mL Proteinase K” value [2] was “demonstrate that Proteinase K cleaves a peptide from the Peptide-PEGA-Beads” and the “ratio of cleaved peptide, 28.4 vs. 14.2 ug/mL Proteinase K (absorbance at 280 nm)” value [2] was “The doubling, of the enzyme concentration resulted in an approximately 1.3 fold increase in cleaved peptide”.
